According to US12466853B2, “Selective targeting of apoptosis proteins by structurally-stabilized and/or cysteine-reactive NOXA peptides” (priority 2017, dated 2025):
Numbering of substitutions follows the chain as printed. Positions of bridges follow the written chain, without caps; N, C: chain ends. Non-standard residues stand in square brackets, D forms with d. No end group written: not given here. R8 = C=CCCCCCC[C@@](C)(N)C(=O)O; S5 = C=CCCC[C@](C)(N)C(=O)O

Columns and labels:
[1] = target: T1, HA-BFL-1ΔC C4S/C19S / tBID (Homo sapiens, UniProt Q16548, C19S/C4S); test: BFL-1/BH3 complex disruption: competition with tBID in 293T lysates; assay type: binding; conditions: anti-HA immunoprecipitation
T1 construct: Recombinant anti-apoptotic BFL-1ΔC (aa 1-151) and its cysteine to serine mutants were cloned into PET17b; expressed in transfected cells; host or cells: 293T (lysate)
T1 sequence (Q16548 1-151 C4S/C19S): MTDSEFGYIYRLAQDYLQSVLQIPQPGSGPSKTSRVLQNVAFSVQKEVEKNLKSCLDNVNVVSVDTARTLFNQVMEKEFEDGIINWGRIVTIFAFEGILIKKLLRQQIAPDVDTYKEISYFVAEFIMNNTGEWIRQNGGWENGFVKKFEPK
Protocol: (§1) To evaluate the capacity of biotinylated SAHBs to compete with tBID for interactions with BFL-1 and MCL-1, 293T cells were transfected with either HA-BFL-1ΔC C4S/C19S or FLAG-MCL-1 in the p3XFLAG-CMV-10 vector (Sigma) as above. After 24 hr, cells were trypsinized, washed with PBS, lysed in 1% CHAPS buffer, and the supernatant collected for protein concentration determination by BCA kit. Lysate samples (0.5 mg) were incubated with 0.25 μM recombinant tBID (R&D Systems) and 5 μM biotinylated NOXA SAHBs for 6 h at RT. The mixtures were then subjected to HA or FLAG immunoprecipitation, followed by western analysis using 1:1000 dilutions of HA (Sigma Aldrich, #12CA5), FLAG (Sigma-Aldrich, F7425), and BID (Santa Cruz sc-11423) antibodies.

MCL-1 = target: T2, MCL-1 (Homo sapiens, UniProt Q07820); test: MCL-1 engagement in A375P lysates (streptavidin pulldown, MCL-1 western); assay type: binding; conditions: biotinylated SAHB
T2 construct: endogenous protein in lysates from the A375P melanoma cell line; endogenous in cells; host or cells: A375P melanoma cells (lysate)
Protocol: (§2) Cultured A375P and U937 cells were trypsinized or harvested, respectively, washed with PBS, and lysed by incubating with 1% CHAPS lysis buffer (1% CHAPS, 150 mM NaCl, 50 mM Tris pH 7.4, 100 μM DTT). The protein concentrations of the soluble fraction were measured using a BCA kit according to the manufacturer's instructions (Thermo Scientific). Lysate samples (1 mg) were incubated with vehicle or C-terminally biotinylated NOXA SAHBs (30 μM) overnight in 1% CHAPS lysis buffer at 4° C. Biotin capture was accomplished by incubating the mixture with high-capacity SA agarose (Thermo Scientific) for 2 hours at 4° C., followed by centrifugation and washing the pelleted beads three times with lysis buffer (1 mL). Bead-bound proteins were eluted by boiling in 10% SDS containing 10 mg/mL biotin for 10 minutes and then subjected to electrophoresis and western blotting using BFL-1 (Abcam, #125259) and MCL-1 (Rockland #600-401-394S) antibodies.

native BFL-1 = target: T3, native BFL-1 (Homo sapiens, UniProt Q16548); test: BFL-1 targeting in A375P lysates (streptavidin pulldown, BFL-1 western); assay type: binding; conditions: biotinylated SAHB, compared to acetylated construct
T3 construct: endogenous in cells; host or cells: A375P melanoma cells (A10); U937 AML cells (A12), lysates
T3 sequence (Q16548 1-175): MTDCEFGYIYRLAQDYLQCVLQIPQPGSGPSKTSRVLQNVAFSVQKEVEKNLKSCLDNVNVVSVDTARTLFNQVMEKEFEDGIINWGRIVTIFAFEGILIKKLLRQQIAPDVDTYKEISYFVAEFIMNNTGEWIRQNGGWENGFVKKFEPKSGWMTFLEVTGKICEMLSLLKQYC
Protocol: as §2

FLAG-MCL-1 / tBID = target: T4, FLAG-MCL-1 / tBID (Homo sapiens, UniProt Q07820); test: MCL-1/tBID complex disruption in 293T lysates; assay type: binding; conditions: FLAG immunoprecipitation
T4 construct: expressed in transfected cells; host or cells: 293T (lysate)
Protocol: as §1

full-length BFL-1 = target: T5, full-length BFL-1 (Homo sapiens, UniProt Q16548); test: Covalent crosslinking to full-length BFL-1, recombinant and HA-tagged expressed in 293T cells; assay type: binding; conditions: recombinant and expressed in 293T cells; somewhat reduced efficiency vs C-terminally truncated species
T5 construct: Recombinant full-length BFL-1 (aa-175) containing an N-terminal hexahistidine tag; made in house
T5 sequence (Q16548 1-175): T3 sequence (Q16548 1-175)
Text: We confirmed that both of our lead constructs could covalently crosslink to full-length BFL-1 protein, which bears a C-terminal helix that could potentially compete with D-NA-NOXA SAHBs for interaction at the canonical BH3-binding pocket in cancer cells. We generated recombinant full-length BFL-1 and expressed HA-tagged full-length BFL-1 in 293T cells, and then conducted crosslinking analyses in vitro and in treated cells, respectively.
Recombinant full-length BFL-1 (aa-175) containing an N-terminal hexahistidine tag was cloned into the PTYB1 vector (New England Biolabs) and purified as above except for the addition of a chitin affinity chromatography and DTT elution step. Protein purity and identity was confirmed by Coomassie staining and western blot analysis using a mouse monoclonal anti-His6 tag antibody (Abcam).
His-BFL-1ΔC C4S/C19S protein (5 μM) was pre-treated with 10 mM DTT in 50 mM Tris (pH 8.0) and 100 mM NaCl for 30 min at room temperature (final volume […]) and then combined with a 10:1 molar ratio of cysteine-reactive NOXA SAHB for an additional 1-hr incubation at room temperature. The samples were then boiled in 3× loading buffer with DTT and electrophoresed on 12% Bis-Tris gel, then subjected to Coomassie staining.

His-BFL-1ΔC = target: T6, His-BFL-1ΔC (Homo sapiens, UniProt Q16548); test: Streptavidin pulldown from recombinant protein mixture, BFL-1; assay type: binding; conditions: equimolar mixture of recombinant MCL-1, BCL-XL, BFL-1 and biotinylated SAHB, silver stain
T6 construct: Recombinant anti-apoptotic BFL-1ΔC (aa 1-151) and its cysteine to serine mutants were cloned into PET17b; made in house; host or cells: Escherichia coli LOBSTR BL21(DE3)
T6 sequence (Q16548 1-151): T1 sequence (Q16548 1-151 C4S/C19S) with S4C, S19C
Protocol: (§3) WT His-BFL-1ΔC, BCL-XLΔC (tagless), and GST-MCL-1ΔNΔC (1 μM each) were combined and incubated with 3 mM DTT in PBS for thirty minutes at room temperature. Mixtures were treated with vehicle or the indicated C-terminally biotinylated NOXA SAHB (1 μM) for four hours and were then added to 30 μL PBS-washed high-capacity streptavidin (SA) agarose beads (Thermo Fisher Pierce) and incubated with rotation at room temperature for two hours. The beads were then washed three times with NP-40 lysis buffer (1% NP-40, 50 mM Tris pH 8, 100 mM NaCl, 2.5 mM MgCl2) and three times with PBS. To elute bound protein, beads were boiled for ten minutes with 10% SDS containing 10 mg/mL biotin. After elution, samples were boiled with 3×LDS and 2M DTT for twenty minutes. Gel electrophoresis using a 12% Bis-Tris gel was conducted on inputs (2%) and eluates (5 μL) and gels were developed using the Pierce silver staining kit (Thermo Fisher).

U937 cells = test: Cell viability (CellTiter-Glo) and CalcuSyn synergy, U937; conditions: U937 cells (BFL-1-dependent)
Protocol: (§4) Cell viability and caspase-3/7 activation was measured using CellTiter-Glo and Caspase-Glo 3/7 chemiluminescence reagents (Promega), respectively, and luminescence was detected by a Spectramax M5 microplate reader. Synergy of drug interactions was calculated using the CalcuSyn software (Biosoft).

MV4;11 cells = test: Cell viability (CellTiter-Glo) and CalcuSyn synergy, MV4;11
Protocol: as §4

BCL-XLΔC (tagless) = target: T7, BCL-XLΔC (tagless) (Homo sapiens, UniProt Q07817); test: Streptavidin pulldown from recombinant protein mixture, BCL-XL; assay type: binding; conditions: equimolar mixture of recombinant MCL-1, BCL-XL, BFL-1 and biotinylated SAHB, silver stain
T7 construct: Recombinant anti-apoptotic BCL-XLΔC (aa 1-212) and MCL-1ΔNΔC (aa 172-329); GST (N, cleaved yes); made in house; host or cells: Escherichia coli BL21(DE3)
Protocol: as §3

GST-MCL-1ΔNΔC = target: T8, GST-MCL-1ΔNΔC (Homo sapiens, UniProt Q07820); test: Streptavidin pulldown from recombinant protein mixture, MCL-1; assay type: binding; conditions: equimolar mixture of recombinant MCL-1, BCL-XL, BFL-1 and biotinylated SAHB, silver stain
T8 construct: BCL-XLΔC (aa 1-212) and MCL-1ΔNΔC (aa 172-329) were cloned into the PGEX-4T-1; made in house; host or cells: Escherichia coli BL21(DE3)
Protocol: as §3

T4 sequence (Q07820 whole entry): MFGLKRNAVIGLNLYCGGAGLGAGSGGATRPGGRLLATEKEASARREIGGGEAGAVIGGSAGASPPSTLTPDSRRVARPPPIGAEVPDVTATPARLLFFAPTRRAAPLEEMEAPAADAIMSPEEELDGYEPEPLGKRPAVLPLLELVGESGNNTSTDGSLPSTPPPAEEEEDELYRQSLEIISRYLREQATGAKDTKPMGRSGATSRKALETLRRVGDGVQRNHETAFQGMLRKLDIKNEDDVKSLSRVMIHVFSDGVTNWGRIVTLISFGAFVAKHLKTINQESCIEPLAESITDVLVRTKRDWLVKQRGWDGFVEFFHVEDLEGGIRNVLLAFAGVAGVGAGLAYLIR
T7 sequence (Q07817 1-212, stated change not applied): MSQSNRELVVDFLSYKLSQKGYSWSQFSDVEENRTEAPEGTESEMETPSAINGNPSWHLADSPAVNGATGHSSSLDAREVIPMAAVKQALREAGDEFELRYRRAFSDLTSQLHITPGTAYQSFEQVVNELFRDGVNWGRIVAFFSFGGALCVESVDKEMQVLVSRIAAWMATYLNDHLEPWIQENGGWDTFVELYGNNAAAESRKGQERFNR
T8 sequence (Q07820 172-329, stated change not applied): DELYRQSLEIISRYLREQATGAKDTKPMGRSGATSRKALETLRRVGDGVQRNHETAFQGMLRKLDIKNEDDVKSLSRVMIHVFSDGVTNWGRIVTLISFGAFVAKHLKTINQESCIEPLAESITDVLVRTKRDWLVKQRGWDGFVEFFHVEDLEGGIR

Molecule: JAT8LRRAGDXLNFRQ [D-NA-NOXA-15 F32A]
- competition with tBID for HA-BFL-1ΔC C4S/C19S interaction [1]: near total inhibition of tBID co-immunoprecipitation
- MCL-1 engagement (MCL-1): approximately equivalent binding to MCL-1
- targeting of native BFL-1 (native BFL-1): enhanced targeting of native BFL-1
- dissociation of FLAG-MCL-1/tBID interaction (FLAG-MCL-1 / tBID): neither D-NA- nor Ac-NOXA15 F32A is able to dissociate the interaction
- covalent crosslinking to full-length BFL-1 (full-length BFL-1): covalent crosslinking to recombinant and expressed full-length BFL-1
- BFL-1 binding / pull down (His-BFL-1ΔC): striking competitive advantage for BFL-1 targeting over its acetylated counterpart
- BFL-1 binding / pull down (His-BFL-1ΔC; listed as D-NA-NOXA-15 F32A SAHB): notably more BFL-1 engagement

Molecule: Cc1c(-c2c(-c3ccc(F)o3)sc3ncnc(O[C@H](Cc4ccccc4OCc4ccnn4CC(F)(F)F)C(=O)O)c23)ccc(OCCN2CCN(C)CC2)c1Cl [S63845]
- cytotoxicity, single agent (U937 cells): no activity
- cytotoxic synergy upon co-treatment (MV4;11 cells; MV4;11 cells (not dependent on BFL-1)): synergy in combination with ATM inhibition
- cytotoxicity, single agent (MV4;11 cells; MV4;11 cells (not dependent on BFL-1, dependent on MCL-1)): single agent activity

Molecule: AT8LRRAGDXLNFRQ (AT[R8]LRRAGD[S5]LNFRQ; staple 3-10; not fully specified (N-terminus); printed as AT8LRRAGDXLNFRQ) [Ac-NOXA-15 F32A, acetylated counterpart of D-NA-NOXA-15 F32A]
- BCL-XL binding / pull down (BCL-XLΔC (tagless)): no binding
- competition with tBID for HA-BFL-1ΔC C4S/C19S interaction [1]: incapable of competing with tBID for HA-BFL-1 binding
- MCL-1 engagement (MCL-1): approximately equivalent binding to MCL-1
- dissociation of FLAG-MCL-1/tBID interaction (FLAG-MCL-1 / tBID): neither D-NA- nor Ac-NOXA15 F32A is able to dissociate the interaction
- MCL-1 binding / pull down (GST-MCL-1ΔNΔC): detectable but minimal direct interaction
- BFL-1 binding / pull down (His-BFL-1ΔC): no binding
